Test results taken from US20080085863A1 (WISCONSIN ALUMNI RESEARCH FOUNDATION, published 2008).
Each block holds one binder with its values, some of them ahead of it.

Key:
[1] = target: T1, Flag-tagged recombinant bone morphogenetic protein-1 (BMP-1) (UniProt P13497-2 121-730, limits assumed); assay: cell-based or functional assay
T1 sequence (looked up): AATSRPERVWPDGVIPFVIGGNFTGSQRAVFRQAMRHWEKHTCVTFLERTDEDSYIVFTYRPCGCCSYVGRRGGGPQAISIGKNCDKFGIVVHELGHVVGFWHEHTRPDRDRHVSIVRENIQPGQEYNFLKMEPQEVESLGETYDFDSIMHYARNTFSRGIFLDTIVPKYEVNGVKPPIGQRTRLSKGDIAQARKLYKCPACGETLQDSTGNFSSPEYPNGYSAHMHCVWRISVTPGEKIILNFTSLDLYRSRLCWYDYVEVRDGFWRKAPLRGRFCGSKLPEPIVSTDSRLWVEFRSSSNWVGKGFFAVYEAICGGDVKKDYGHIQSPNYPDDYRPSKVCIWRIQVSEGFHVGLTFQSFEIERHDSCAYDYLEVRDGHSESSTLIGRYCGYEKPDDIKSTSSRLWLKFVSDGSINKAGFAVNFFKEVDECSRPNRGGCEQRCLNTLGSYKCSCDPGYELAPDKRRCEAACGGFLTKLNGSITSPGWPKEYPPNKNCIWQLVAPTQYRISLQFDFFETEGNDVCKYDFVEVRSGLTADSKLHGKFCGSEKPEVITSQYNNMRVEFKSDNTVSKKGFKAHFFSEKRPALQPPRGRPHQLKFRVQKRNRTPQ

[2] = target: T1, Flag-tagged recombinant bone …; assay: time course of covalent complex formation of 40 nM 35S-BMP-1 with increasing α2M, SDS-PAGE densitometry (method of Enghild et al.)
Protocol: 40 nM ³⁵S-labeled BMP-1 was incubated with 20, 40, 80, 160, and 240 nM plasma α₂M, or recombinant wild type α₂M or with 5, 10, 20, 40, and 80 nM b-α₂M at 37° C. in 50 mM Tris-HCl, pH 7.5, 100 mM NaCl and 10 mM CaCl₂. Reactions were stopped at 10, 30, 60, 90 and 120 minutes (plasma α₂M and recombinant wild type α₂M), or at 2, 5, 10, 20 and 30 minutes (b-α₂M) by adding. SDS-PAGE sample buffer and boiling 5 minutes at 95° C. Protein samples were separated on 7.5% acrylamide SDS-PAGE gels, which were then treated with EN³HANCE (DuPont) and exposed to film. Percentages of BMP-1 incorporated into high molecular weight complexes were determined by densitometry and kinetic parameters were determined essentially via the method of Enghild J, et al, “Interaction of human rheumatoid synovial collagenase (matrix metalloproteinase 1) and stromelysin (matrix metalloproteinase 3) with human alpha 2-macroglobulin and chicken ovostatin. Binding kinetics and identification of matrix metalloproteinase cleavage sites,” J. Biol. Chem. 264:8779-8785 (1989).
To obtain a quantitative comparison of the rates of interaction of BMP-1 with the various wild type and mutant forms of α₂M, we employed the methodology of Enghild et al., supra, which involves quantification of covalent proteinase-α₂M complex formation, subsequent to incubation of radiolabeled proteinase with α₂M.

inhibition of BMP-1 pCP activity (cleavage of 3H-radiolabeled type I procollagen), IC50 [1]: 4.8 nM
Ki [2]: 25.2 nM
B1: human α2-macroglobulin from plasma (Sigma-Aldrich) (other)
chain: SVSGKPQYMVLVPSLLHTETTEKGCVLLSYLNETVTVSASLESVRGNRSLFTDLEAENDVLHCVAFAVPKSSSNEEVMFLTVQVKGPTQEFKKRTTVMVKNEDSLVFVQTDKSIYKPGQTVKFRVVSMDENFHPLNELIPLVYIQDPKGNRIAQWQSFQLEGGLKQFSFPLSSEPFQGSYKVVVQKKSGGRTEHPFTVEEFVLPKFEVQVTVPKIITILEEEMNVSVCGLYTYGKPVPGHVTVSICRKYSDASDCHGEDSQAFCEKFSGQLNSHGCFYQQVKTKVFQLKRKEYEMKLHTEAQIQEEGTVVELTGRQSSEITRTITKLSFVKVDSHFRQGIPFFGQVRLVDGKGVPIPNKVIFIRGNEANYYSNATTDEHGLVQFSINTTNVMGTSLTVRVNYKDRSPCYGYQWVSEEHEEAHHTAYLVFSPSKSFVHLEPMSHELPCGHTQTVQAHYILNGGTLLGLKKLSFYYLIMAKGGIVRTGTHGLLVKQEDMKGHFSISIPVKSDIAPVARLLIYAVLPTGDVIGDSAKYDVENCLANKVDLSFSPSQSLPASHAHLRVTAAPQSVCALRAVDQSVLLMKPDAELSASSVYNLLPEKDLTGFPGPLNDQDDEDCINRHNVYINGITYTPVSSTNEKDMYSFLEDMGLKAFTNSKIRKPKMCPQLQQYEMHGPEGLRVGFYESDVMGRGHARLVHVEEPHTETVRKYFPETWIWDLVVVNSAGVAEVGVTVPDTITEWKAGAFCLSEDAGLGISSTASLRAFQPFFVELTMPYSVIRGEAFTLKATVLNYLPKCIRVSVQLEASPAFLAVPVEKEQAPHCICANGRQTVSWAVTPKSLGNVNFTVSAEALESQELCGTEVPSVPEHGRKDTVIKPLLVEPEGLEKETTFNSLLCPSGGEVSEELSLKLPPNVVEESARASVSVLGDILGSAMQNTQNLLQMPYGCGEQNMVLFAPNIYVLDYLNETQQLTPEIKSKAIGYLNTGYQRQLNYKHYDGSYSTFGERYGRNQGNTWLTAFVLKTFAQARAYIFIDEAHITQALIWLSQRQKDNGCFRSSGSLLNNAIKGGVEDEVTLSAYITIALLEIPLTVTHPVVRNALFCLESAWKTAQEGDHGSHVYTKALLAYAFALAGNQDKRKEVLKSLNEEAVKKDNSVHWERPQKPKAPVGHFYEPQAPSAEVEMTSYVLLAYLTAQPAPTSEDLTSATNIVKWITKQQNAQGGFSSTQDTVVALHALSKYGAATFTRTGKAAQVTIQSSGTFSSKFQVDNNNRLLLQQVSLPELPGEYSMKVTGEGCVYLQTSLKYNILPEKEEFPFALGVQTLPQTCDEPKAHTSFQISLSVSYTGSRSASNMAIVDVKMVSGFIPLKPTVKMLERSNHVSRTEVSSNHVLIYLDKVSNQTLSLFFTVLQDVPVRDLKPAIVKVYDYYETDEFAIAEYNAPCSKDLGNA
notes: Bought plasma protein; also called plasma α2M; serum α2M

pCP inhibitory activity, IC50 [1]: 133 nM
Ki [2]: 39.5 nM
B2: recombinant wild type α2-macroglobulin (FLAG-tagged) (other, not shown: small tags and cut ends)
chain: B1 chain
notes: Expressed in 293 T-REx cells with the native signal peptide replaced by the BM40 signal peptide; also called rα2M; recombinant α2M
